Measured values taken from US20250051735A1 (VANDERBILT UNIVERSITY, published 2025).

Molecular target: the molecule itself
Experiment: sedimentation velocity analytical ultracentrifugation (self-association)
Experimental: Sedimentation velocity data were collected at 50,000 rpm and 20° C. on a Beckman Coulter ProteomeLab XL-I analytical ultracentrifuge following standard protocols (Zhao, H., et al. Curr Protoc Protein Sci, 2013 Chapter 20, Unit20 12). 2-channel, 12 mm centerpiece cells were used, and sedimentation was monitored with the absorbance (280 nm) and Rayleigh interference (655 nm) detection systems. A continuous c(s) distribution of Lamm equation solutions, as implemented in SEDFIT (Schuck, P. Biophys J 2000 78:1606-1619), modeled the sedimentation data. […] (Cole, J. L., et al. Methods Cell Biol 2008 84:143-179) provided the solution densities ρ, solution viscosities η, and protein partial specific volumes required for the analysis.
The N-terminus is required for transposase dimerization prior to transposon end binding. Although an attempt was made to explore the role of the piggyBac transposase N-terminus using purified proteins, no soluble N-terminally truncated transposases was recovered under conditions successfully used for the WT transposase in EXPI293F cells (Chen, Q., et al. Nat Commun, 2020 11:3446). To circumvent this, a TEV protease cleavage site was introduced between resides 74 and 75 which allowed expression and purification of a full-length protein and then proteolytical removal of the first 74 amino acids.

B1: PB74-539 transposase generated by proteolytic cleavage (TEV-cleaved TEVΔ74PB1-539) (enzyme)
chain: GSSLASNRILTLPQRTIRGKNKHCWSTSKSTRRSRVSALNIVRSQRGPTRMCRNIYDPLLCFKLFFTDEIISEIVKWTNAEISLKRRESMTGATFRDTNEDEIYAFFGILVMTAVRKDNHMSTDDLFDRSLSMVYVSVMSRDRFDFLIRCLRMDDKSIRPTLRENDVFTPVRKIWDLFIHQCIQNYTPGAHLTIDEQLLGFRGRCPFRMYIPNKPSKYGIKILMMCDSGTKYMINGMPYLGRGTQTNGVPLGEYYVKELSKPVHGSCRNITCDNWFTSIPLAKNLLQEPYKLTIVGTVRSNKREIPEVLKNSRSRPVGTSMFCFDGPLTLVSYKPKPAKMVYLLSSCDEDASINESTGKPQMVMYYNQTKGGVDTLDQMCSVMTCSRKTNRWPMALLYGMINIACINSFIIYSHNVSSKGEKVQSRKKFMRNLYMSLTSSFMRKRLEAPTLKRYLRDNISNILPNE
- binding result: no binding
